Reference: patent US12679878B2, “CRF2 receptor agonists and their use in therapy” (SANOFI, priority 2020, dated 2026)
Starred links: 1 amine or outer side, 2 acyl side, 3 side chain; linkers in the order of their positions; H or OH if unused. Non-standard residues stand in square brackets, D forms with d. Groups on a side chain read outwards from the residue. No end group written: not given here. *: point of attachment. C18 diacid = O=C(O)CCCCCCCCCCCCCCCCC(=O)*; γGlu = O=C(O)[C@H](CCC(=O)[*:2])N[*:1]; AEEA = NCCOCCOCC(=O)O; Aib = CC(C)(N)C(=O)O

The binders below were run against human corticotropin-releasing factor 2α (CRF2 α receptor) (human), Q13324 (assay: cell-based or functional assay).
Sequence of human corticotropin-releasing factor 2α (CRF2 α receptor) (human), Q13324 (Q13324 20-411): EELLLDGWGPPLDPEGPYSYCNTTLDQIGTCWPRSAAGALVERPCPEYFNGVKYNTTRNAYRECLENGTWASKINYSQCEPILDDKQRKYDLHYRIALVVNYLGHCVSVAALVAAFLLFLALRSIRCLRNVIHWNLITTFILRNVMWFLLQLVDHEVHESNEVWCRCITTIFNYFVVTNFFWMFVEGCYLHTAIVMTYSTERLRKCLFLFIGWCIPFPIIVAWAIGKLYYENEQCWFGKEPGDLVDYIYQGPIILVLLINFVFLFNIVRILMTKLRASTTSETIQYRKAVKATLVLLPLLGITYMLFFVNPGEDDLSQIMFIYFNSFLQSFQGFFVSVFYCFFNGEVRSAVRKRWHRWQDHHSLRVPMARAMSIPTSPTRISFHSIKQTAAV

| Binder | EC50 [nM], 0% HSA | EC50 [nM], 0.1% HSA |
| --- | --- | --- |
| IVLSLDVPIGLK([AEEA-AEEA-γGlu-C18 diacid])QILLKQERQKK[Aib]REQAETNKRILERV-NH2 (N-terminus assumed; SMILES CC[C@H](C)[C@H](N)C(=O)N[C@H](C(=O)N[C@@H](CC(C)C)C(=O)N[C@@H](CO)C(=O)N[C@@H](CC(C)C)C(=O)N[C@@H](CC(=O)O)C(=O)N[C@H](C(=O)N1CCC[C@H]1C(=O)N[C@H](C(=O)NCC(=O)N[C@@H](CC(C)C)C(=O)N[C@@H](CCCCNC(=O)COCCOCCNC(=O)COCCOCCNC(=O)CC[C@H](NC(=O)CCCCCCCCCCCCCCCCC(=O)O)C(=O)O)C(=O)N[C@@H](CCC(N)=O)C(=O)N[C@H](C(=O)N[C@@H](CC(C)C)C(=O)N[C@@H](CC(C)C)C(=O)N[C@@H](CCCCN)C(=O)N[C@@H](CCC(N)=O)C(=O)N[C@@H](CCC(=O)O)C(=O)N[C@@H](CCCNC(=N)N)C(=O)N[C@@H](CCC(N)=O)C(=O)N[C@@H](CCCCN)C(=O)N[C@@H](CCCCN)C(=O)NC(C)(C)C(=O)N[C@@H](CCCNC(=N)N)C(=O)N[C@@H](CCC(=O)O)C(=O)N[C@@H](CCC(N)=O)C(=O)N[C@@H](C)C(=O)N[C@@H](CCC(=O)O)C(=O)N[C@H](C(=O)N[C@@H](CC(N)=O)C(=O)N[C@@H](CCCCN)C(=O)N[C@@H](CCCNC(=N)N)C(=O)N[C@H](C(=O)N[C@@H](CC(C)C)C(=O)N[C@@H](CCC(=O)O)C(=O)N[C@@H](CCCNC(=N)N)C(=O)N[C@H](C(N)=O)C(C)C)[C@@H](C)CC)[C@@H](C)O)[C@@H](C)CC)[C@@H](C)CC)C(C)C)C(C)C) [SEQ ID NO: 148] | 0.29 nM | 14.3 nM |
| IVLSLDVPIGLK([AEEA-AEEA-γGlu-C18 diacid])QKLLKQQRQRKERQQAEKNARILARV-NH2 (N-terminus assumed; SMILES CC[C@H](C)[C@H](N)C(=O)N[C@H](C(=O)N[C@@H](CC(C)C)C(=O)N[C@@H](CO)C(=O)N[C@@H](CC(C)C)C(=O)N[C@@H](CC(=O)O)C(=O)N[C@H](C(=O)N1CCC[C@H]1C(=O)N[C@H](C(=O)NCC(=O)N[C@@H](CC(C)C)C(=O)N[C@@H](CCCCNC(=O)COCCOCCNC(=O)COCCOCCNC(=O)CC[C@H](NC(=O)CCCCCCCCCCCCCCCCC(=O)O)C(=O)O)C(=O)N[C@@H](CCC(N)=O)C(=O)N[C@@H](CCCCN)C(=O)N[C@@H](CC(C)C)C(=O)N[C@@H](CC(C)C)C(=O)N[C@@H](CCCCN)C(=O)N[C@@H](CCC(N)=O)C(=O)N[C@@H](CCC(N)=O)C(=O)N[C@@H](CCCNC(=N)N)C(=O)N[C@@H](CCC(N)=O)C(=O)N[C@@H](CCCNC(=N)N)C(=O)N[C@@H](CCCCN)C(=O)N[C@@H](CCC(=O)O)C(=O)N[C@@H](CCCNC(=N)N)C(=O)N[C@@H](CCC(N)=O)C(=O)N[C@@H](CCC(N)=O)C(=O)N[C@@H](C)C(=O)N[C@@H](CCC(=O)O)C(=O)N[C@@H](CCCCN)C(=O)N[C@@H](CC(N)=O)C(=O)N[C@@H](C)C(=O)N[C@@H](CCCNC(=N)N)C(=O)N[C@H](C(=O)N[C@@H](CC(C)C)C(=O)N[C@@H](C)C(=O)N[C@@H](CCCNC(=N)N)C(=O)N[C@H](C(N)=O)C(C)C)[C@@H](C)CC)[C@@H](C)CC)C(C)C)C(C)C) [SEQ ID NO: 16] | 0.3 nM |  |
| IVLSLD[dV]PIGLK([AEEA-AEEA-γGlu-C18 diacid])QILLKQERQKK[Aib]REQAETNKQILAQV-NH2 (N-terminus assumed; SMILES CC[C@H](C)[C@H](N)C(=O)N[C@H](C(=O)N[C@@H](CC(C)C)C(=O)N[C@@H](CO)C(=O)N[C@@H](CC(C)C)C(=O)N[C@@H](CC(=O)O)C(=O)N[C@@H](C(=O)N1CCC[C@H]1C(=O)N[C@H](C(=O)NCC(=O)N[C@@H](CC(C)C)C(=O)N[C@@H](CCCCNC(=O)COCCOCCNC(=O)COCCOCCNC(=O)CC[C@H](NC(=O)CCCCCCCCCCCCCCCCC(=O)O)C(=O)O)C(=O)N[C@@H](CCC(N)=O)C(=O)N[C@H](C(=O)N[C@@H](CC(C)C)C(=O)N[C@@H](CC(C)C)C(=O)N[C@@H](CCCCN)C(=O)N[C@@H](CCC(N)=O)C(=O)N[C@@H](CCC(=O)O)C(=O)N[C@@H](CCCNC(=N)N)C(=O)N[C@@H](CCC(N)=O)C(=O)N[C@@H](CCCCN)C(=O)N[C@@H](CCCCN)C(=O)NC(C)(C)C(=O)N[C@@H](CCCNC(=N)N)C(=O)N[C@@H](CCC(=O)O)C(=O)N[C@@H](CCC(N)=O)C(=O)N[C@@H](C)C(=O)N[C@@H](CCC(=O)O)C(=O)N[C@H](C(=O)N[C@@H](CC(N)=O)C(=O)N[C@@H](CCCCN)C(=O)N[C@@H](CCC(N)=O)C(=O)N[C@H](C(=O)N[C@@H](CC(C)C)C(=O)N[C@@H](C)C(=O)N[C@@H](CCC(N)=O)C(=O)N[C@H](C(N)=O)C(C)C)[C@@H](C)CC)[C@@H](C)O)[C@@H](C)CC)[C@@H](C)CC)C(C)C)C(C)C) [SEQ ID NO: 147] | 0.18 nM | 8.17 nM |

The remaining lines, values ahead:

| EC50 [nM], 0% HSA | EC50 [nM], 0.1% HSA | Binder |
| --- | --- | --- |
| 0.07 nM | 3.99 nM | IVLSLD[dV]PIGLK([AEEA-AEEA-γGlu-C18 diacid])QILLKQERQKK[Aib]RQQAETNKRILERV-NH2 (N-terminus assumed; SMILES CC[C@H](C)[C@H](N)C(=O)N[C@H](C(=O)N[C@@H](CC(C)C)C(=O)N[C@@H](CO)C(=O)N[C@@H](CC(C)C)C(=O)N[C@@H](CC(=O)O)C(=O)N[C@@H](C(=O)N1CCC[C@H]1C(=O)N[C@H](C(=O)NCC(=O)N[C@@H](CC(C)C)C(=O)N[C@@H](CCCCNC(=O)COCCOCCNC(=O)COCCOCCNC(=O)CC[C@H](NC(=O)CCCCCCCCCCCCCCCCC(=O)O)C(=O)O)C(=O)N[C@@H](CCC(N)=O)C(=O)N[C@H](C(=O)N[C@@H](CC(C)C)C(=O)N[C@@H](CC(C)C)C(=O)N[C@@H](CCCCN)C(=O)N[C@@H](CCC(N)=O)C(=O)N[C@@H](CCC(=O)O)C(=O)N[C@@H](CCCNC(=N)N)C(=O)N[C@@H](CCC(N)=O)C(=O)N[C@@H](CCCCN)C(=O)N[C@@H](CCCCN)C(=O)NC(C)(C)C(=O)N[C@@H](CCCNC(=N)N)C(=O)N[C@@H](CCC(N)=O)C(=O)N[C@@H](CCC(N)=O)C(=O)N[C@@H](C)C(=O)N[C@@H](CCC(=O)O)C(=O)N[C@H](C(=O)N[C@@H](CC(N)=O)C(=O)N[C@@H](CCCCN)C(=O)N[C@@H](CCCNC(=N)N)C(=O)N[C@H](C(=O)N[C@@H](CC(C)C)C(=O)N[C@@H](CCC(=O)O)C(=O)N[C@@H](CCCNC(=N)N)C(=O)N[C@H](C(N)=O)C(C)C)[C@@H](C)CC)[C@@H](C)O)[C@@H](C)CC)[C@@H](C)CC)C(C)C)C(C)C) [SEQ ID NO: 150] |
| 0.08 nM | 3.87 nM | IVLSLD[dV]PIGLK([AEEA-AEEA-γGlu-C18 diacid])QILLKQERQKK[Aib]REQAEKNKRILERV-NH2 (N-terminus assumed; SMILES CC[C@H](C)[C@H](N)C(=O)N[C@H](C(=O)N[C@@H](CC(C)C)C(=O)N[C@@H](CO)C(=O)N[C@@H](CC(C)C)C(=O)N[C@@H](CC(=O)O)C(=O)N[C@@H](C(=O)N1CCC[C@H]1C(=O)N[C@H](C(=O)NCC(=O)N[C@@H](CC(C)C)C(=O)N[C@@H](CCCCNC(=O)COCCOCCNC(=O)COCCOCCNC(=O)CC[C@H](NC(=O)CCCCCCCCCCCCCCCCC(=O)O)C(=O)O)C(=O)N[C@@H](CCC(N)=O)C(=O)N[C@H](C(=O)N[C@@H](CC(C)C)C(=O)N[C@@H](CC(C)C)C(=O)N[C@@H](CCCCN)C(=O)N[C@@H](CCC(N)=O)C(=O)N[C@@H](CCC(=O)O)C(=O)N[C@@H](CCCNC(=N)N)C(=O)N[C@@H](CCC(N)=O)C(=O)N[C@@H](CCCCN)C(=O)N[C@@H](CCCCN)C(=O)NC(C)(C)C(=O)N[C@@H](CCCNC(=N)N)C(=O)N[C@@H](CCC(=O)O)C(=O)N[C@@H](CCC(N)=O)C(=O)N[C@@H](C)C(=O)N[C@@H](CCC(=O)O)C(=O)N[C@@H](CCCCN)C(=O)N[C@@H](CC(N)=O)C(=O)N[C@@H](CCCCN)C(=O)N[C@@H](CCCNC(=N)N)C(=O)N[C@H](C(=O)N[C@@H](CC(C)C)C(=O)N[C@@H](CCC(=O)O)C(=O)N[C@@H](CCCNC(=N)N)C(=O)N[C@H](C(N)=O)C(C)C)[C@@H](C)CC)[C@@H](C)CC)[C@@H](C)CC)C(C)C)C(C)C) [SEQ ID NO: 151] |
| 0.06 nM | 2.54 nM | IVLSLD[dV]PIKLK([AEEA-AEEA-γGlu-C18 diacid])QILLKQERQKK[Aib]REQAETNKRILERV-NH2 (N-terminus assumed; SMILES CC[C@H](C)[C@H](N)C(=O)N[C@H](C(=O)N[C@@H](CC(C)C)C(=O)N[C@@H](CO)C(=O)N[C@@H](CC(C)C)C(=O)N[C@@H](CC(=O)O)C(=O)N[C@@H](C(=O)N1CCC[C@H]1C(=O)N[C@H](C(=O)N[C@@H](CCCCN)C(=O)N[C@@H](CC(C)C)C(=O)N[C@@H](CCCCNC(=O)COCCOCCNC(=O)COCCOCCNC(=O)CC[C@H](NC(=O)CCCCCCCCCCCCCCCCC(=O)O)C(=O)O)C(=O)N[C@@H](CCC(N)=O)C(=O)N[C@H](C(=O)N[C@@H](CC(C)C)C(=O)N[C@@H](CC(C)C)C(=O)N[C@@H](CCCCN)C(=O)N[C@@H](CCC(N)=O)C(=O)N[C@@H](CCC(=O)O)C(=O)N[C@@H](CCCNC(=N)N)C(=O)N[C@@H](CCC(N)=O)C(=O)N[C@@H](CCCCN)C(=O)N[C@@H](CCCCN)C(=O)NC(C)(C)C(=O)N[C@@H](CCCNC(=N)N)C(=O)N[C@@H](CCC(=O)O)C(=O)N[C@@H](CCC(N)=O)C(=O)N[C@@H](C)C(=O)N[C@@H](CCC(=O)O)C(=O)N[C@H](C(=O)N[C@@H](CC(N)=O)C(=O)N[C@@H](CCCCN)C(=O)N[C@@H](CCCNC(=N)N)C(=O)N[C@H](C(=O)N[C@@H](CC(C)C)C(=O)N[C@@H](CCC(=O)O)C(=O)N[C@@H](CCCNC(=N)N)C(=O)N[C@H](C(N)=O)C(C)C)[C@@H](C)CC)[C@@H](C)O)[C@@H](C)CC)[C@@H](C)CC)C(C)C)C(C)C) [SEQ ID NO: 149] |
